Measured values reported in patent publication US20050130287A1, “Purifying process of soluble proteins of the l.obliqua bristles through prothrombin activation: process for a partial determination of the amino acids sequence of the prothrombin activator; process for determining the prothrombin activation of fraction II, n-terminal and internal fragments sequences” (priority 2002, published 2005).

Legend:
prothrombin = prothrombin (UniProt P00734)
Abz-YQTFFNPRTFGSQ-EDDnp = system: T1, Abz-YQTFFNPRTFGSQ-EDDnp
T1 sequence: YQTFFNPRTFGSQ

[1] = target: purified human fibrinogen (UniProt P02671)

Factor Xa
Coagulation Time (S) of fibrinogen, with Ca2+ (prothrombin): 120 s

Lonomia obliqua Prothrombin Activator Protease (Lopap)
Kcat (Abz-YQTFFNPRTFGSQ-EDDnp): Kcat 5,32 sec^-1
Kcat/Kmapp (Abz-YQTFFNPRTFGSQ-EDDnp): Kcat/K mapp 1,2×106 M^-1 sec -1
Kmapp (Abz-YQTFFNPRTFGSQ-EDDnp): Kmapp 4,5 µM
Factor X activation, hydrolysis of S-2765 (Factor X): Lopap did not present capacity of activating factor X
Factor X activation, hydrolysis of S-2765 (p-nitroaniline formed) (Factor X): When Factor X (30 nM) was added to the experiment, the substrate hydrolysis obtained was of 2,6 µM
Coagulation Time (S) of fibrinogen, with Ca2+ (prothrombin): 60 s
Coagulation Time (S) of fibrinogen, without Ca2+ (prothrombin): 240 s
Coagulation Time (S) of fibrinogen, without Factor II [1]: Lopap + / F II - / FG +: >1200
